From patent US20250340636A1, “ANTIBODIES TARGETING L1CAM AND USES THEREOF” (MEMORIAL SLOAN-KETTERING CANCER CENTER, priority 2023, published 2025)

Assays:
[1] = target: T1, HEK293FT cells transiently transfected with mouse L1CAM (Mus musculus, UniProt P11627); assay: Flow cytometry binding to HEK293FT cells transiently transfected with mouse L1CAM
T1 construct: expressed in transfected cells; host or cells: HEK293FT (transient)
Method: Hybridoma Screening. Binding to human L1CAM protein was tested by ELISA and to a HEK293T cell line overexpressing human L1CAM by flow cytometry. […] Cross-reactivity to cynomolgus L1CAM was not assessed at this point, as it is >99% homologous to human L1CAM. […] The antibodies were tested for binding to MDA-MB-231 cells, a breast cancer cell line that endogenously expresses L1CAM, followed by analysis of their internalization efficacy in MDA-MB-231 cells.
Binding Analysis. […] Dissociation constants (KD) for binding to soluble human and cynomolgus monkey L1CAM-His were determined using biolayer interferometry (BLI). In addition, EC50 values for binding to cell-bound L1CAM were established by flow cytometry using HEK293T/FT cells overexpressing human or mouse L1CAM, MCF-7 cells, and MDA-MB-231 cells. In addition, the epitope regions of the mAbs were determined by BLI interaction analysis with L1CAM subdomains (Ig and FN) expressed individually, and by a BLI competition experiment to identify epitope bins.
The binding curves for each antibody and cell line normalized to secondary antibody only staining (MFI ratio) are shown in FIGS. 14A-14C. EC50 values were determined by non-linear regression (Table 70). […] It is possible that differences in the conformation and oligomerization of L1CAM, depending on the surface expression level, contributed to the binding pattern. […]

[2] = target: T2, recombinant L1CAM-Fc fusion protein (Homo sapiens, UniProt P32004); assay: BLI binding of 76H12 Fabs to recombinant L1CAM-Fc; settings: L1CAM-Fc on AHC biosensors, Fab 3-200 nM, 1:1 model
T2 construct: purchased R&D Systems; host or cells: mammalian cells
Description: A total of 11 humanized 76H12 Fab variants (Fabs 2-12) were generated in addition to a chimeric 76H12 Fab (Fab 1) containing the parental murine VH and VL sequences. The chimeric Fab served as the benchmark for comparative assessment of humanized Fab variants. Humanized Fabs were first assessed by flow cytometry for binding to 293T cells engineered to overexpress L1CAM (FIG. 32A). All humanized variants bound to the L1CAM overexpressing cells, with most binding comparably to the chimeric 76H12 Fab. […] Here, recombinant L1CAM-Fc fusion protein was immobilized onto anti-Human IgG Fc Capture (AHC) biosensors and binding of Fabs was measured kinetically over a 3-200 nM concentration range. Kinetic data were fitted to a 1:1 binding model to compute association (kon) and dissociation (koff) rate constants, in addition to equilibrium dissociation constants (KD) as shown in Table 87. […] From these, Fab 3 represents the preferred humanized variant given higher identity to human germline IGHV1-46 and IGKV1-39 sequences resulting from fewer human-to-murine framework back mutations.

T2 sequence (P32004 20-1120): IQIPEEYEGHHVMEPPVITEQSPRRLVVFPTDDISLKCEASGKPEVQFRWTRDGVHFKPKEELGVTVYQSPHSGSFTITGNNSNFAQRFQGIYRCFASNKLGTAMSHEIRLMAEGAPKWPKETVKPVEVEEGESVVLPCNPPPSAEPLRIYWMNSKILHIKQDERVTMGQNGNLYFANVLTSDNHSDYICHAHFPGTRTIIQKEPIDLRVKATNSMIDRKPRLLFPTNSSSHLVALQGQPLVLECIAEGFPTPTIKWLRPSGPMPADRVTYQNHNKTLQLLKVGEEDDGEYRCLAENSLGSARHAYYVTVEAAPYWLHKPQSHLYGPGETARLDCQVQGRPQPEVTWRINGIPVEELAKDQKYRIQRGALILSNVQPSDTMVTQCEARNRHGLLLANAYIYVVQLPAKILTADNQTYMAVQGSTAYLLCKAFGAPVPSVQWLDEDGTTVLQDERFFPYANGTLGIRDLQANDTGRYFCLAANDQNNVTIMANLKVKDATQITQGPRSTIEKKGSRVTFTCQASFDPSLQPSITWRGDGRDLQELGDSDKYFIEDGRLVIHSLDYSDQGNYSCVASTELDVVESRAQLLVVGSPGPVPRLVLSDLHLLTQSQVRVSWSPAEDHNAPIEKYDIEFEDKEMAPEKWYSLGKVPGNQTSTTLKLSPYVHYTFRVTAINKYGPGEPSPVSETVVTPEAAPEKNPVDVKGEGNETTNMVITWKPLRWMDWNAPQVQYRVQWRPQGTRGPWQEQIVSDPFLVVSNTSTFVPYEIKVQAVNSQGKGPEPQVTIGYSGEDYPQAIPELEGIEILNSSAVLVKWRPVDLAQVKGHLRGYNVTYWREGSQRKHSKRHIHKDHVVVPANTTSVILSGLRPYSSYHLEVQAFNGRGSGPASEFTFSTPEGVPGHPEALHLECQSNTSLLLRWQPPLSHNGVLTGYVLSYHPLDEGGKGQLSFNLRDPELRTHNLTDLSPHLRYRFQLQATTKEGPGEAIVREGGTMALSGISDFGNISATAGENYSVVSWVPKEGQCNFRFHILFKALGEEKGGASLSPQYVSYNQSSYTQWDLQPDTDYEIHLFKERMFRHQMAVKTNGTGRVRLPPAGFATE
T1 sequence (P11627 20-1260): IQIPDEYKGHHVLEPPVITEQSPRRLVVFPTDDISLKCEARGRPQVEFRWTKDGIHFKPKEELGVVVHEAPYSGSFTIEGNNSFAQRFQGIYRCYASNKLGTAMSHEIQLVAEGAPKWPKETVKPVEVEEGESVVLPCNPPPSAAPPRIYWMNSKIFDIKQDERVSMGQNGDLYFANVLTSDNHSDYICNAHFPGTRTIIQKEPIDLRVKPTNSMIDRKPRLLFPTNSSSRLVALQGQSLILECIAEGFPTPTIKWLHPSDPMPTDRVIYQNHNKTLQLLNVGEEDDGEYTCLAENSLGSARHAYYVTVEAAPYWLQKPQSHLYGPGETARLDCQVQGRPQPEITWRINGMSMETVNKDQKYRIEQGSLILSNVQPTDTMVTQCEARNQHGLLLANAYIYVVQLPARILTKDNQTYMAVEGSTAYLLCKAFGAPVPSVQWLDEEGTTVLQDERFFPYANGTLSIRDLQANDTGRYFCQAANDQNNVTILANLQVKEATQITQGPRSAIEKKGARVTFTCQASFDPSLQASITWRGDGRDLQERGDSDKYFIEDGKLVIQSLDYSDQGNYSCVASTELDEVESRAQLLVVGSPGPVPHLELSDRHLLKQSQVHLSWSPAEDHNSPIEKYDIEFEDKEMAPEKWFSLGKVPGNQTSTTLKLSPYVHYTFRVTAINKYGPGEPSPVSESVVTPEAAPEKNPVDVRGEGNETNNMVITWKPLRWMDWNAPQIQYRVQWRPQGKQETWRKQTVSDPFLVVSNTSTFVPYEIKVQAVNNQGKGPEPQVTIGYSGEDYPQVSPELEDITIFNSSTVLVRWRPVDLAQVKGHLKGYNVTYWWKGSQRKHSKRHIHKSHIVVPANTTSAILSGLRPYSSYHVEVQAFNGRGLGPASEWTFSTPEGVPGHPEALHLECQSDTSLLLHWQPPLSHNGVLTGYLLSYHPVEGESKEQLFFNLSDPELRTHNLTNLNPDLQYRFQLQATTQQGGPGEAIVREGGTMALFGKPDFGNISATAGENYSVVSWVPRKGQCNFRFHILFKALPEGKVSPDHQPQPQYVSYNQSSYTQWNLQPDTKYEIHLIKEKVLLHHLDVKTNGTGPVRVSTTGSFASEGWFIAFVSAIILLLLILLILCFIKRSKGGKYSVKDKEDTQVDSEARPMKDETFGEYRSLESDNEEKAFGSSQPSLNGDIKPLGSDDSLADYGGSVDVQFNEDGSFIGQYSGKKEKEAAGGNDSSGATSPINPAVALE

cross-reactivity with mouse L1CAM [1] | Molecule | affinity for L1CAM relative to the chimeric Fab (Fab 1) [2]
cross-reacted with mouse L1CAM | 14A10: anti-L1CAM mAb from AlivaMab mice (human variable regions, mouse IgG1 Fc); VH SEQ ID NO: 87, VL SEQ ID NO: 88 (antibody, V domains shown) VH: EVQMVESGGGLVQPGGSLRLSCAAPGFIFSSYNMNWVRQAPGKGLEWVSYISSSSSTTYYADSVKGRFTISRDNAKNSLYLQMNSLRDEDTAVYYCASLYSGYDYYYYYGMDVWGQGTTVTVSS VL: DIVMTQTPLSSPVSLGQPASISCRSSQSLVHSDGNTYLSWLQQRPGQPPRVLIYKISKRFSGVPDRFSGSGAGTDFTLKISRVEAEDVGVYYCMQATQFPFTFGPGTKVDIK | –
– | Fab 3: humanized 76H12 Fab variant, preferred; design in Table 86 (antibody, V domains shown) VH: QVQLVQSGAEVKKPGASVKVSCKASGYTFTSYWMHWVRQAPGQGLEWIGNVYPGSGSTKYAQKFQGRATLTVDTSTSTVYMELSSLRSEDTAVYYCARPGNYEGFAYWGQGTLVTVSS VL: DIQLTQSPSSLSASVGDRVTITCRASESVDSYGSSFMHWYQQKPGKPPKLLIYLASNLESGVPSRFSGSGSGTDFTLTISSLQPEDFATYYCQQNNEDPWTFGQGTKLEIK | equivalent or better affinity than the chimeric Fab
– | Fab 4: humanized 76H12 Fab variant; design in Table 86 (antibody, V domains shown) VH: QVQLVQSGAEVKKPGASVKVSCKASGYTFTSYWMHWVRQAPGQGLEWIGNVYPGSGSTKYAQKFQGRATLTVDTSTSTVYMELSSLRSEDTAVYYCARPGNYEGFAYWGQGTLVTVSS VL: DIQLTQSPSSLSASVGDRVTITCRASESVDSYGSSFMHWYQQKPGKPPKLLIYLASNLESGVPSRFSGSGSRTDFTLTISSLQPEDFATYYCQQNNEDPWTFGQGTKLEIK | equivalent or better affinity than the chimeric Fab
– | Fab 5: humanized 76H12 Fab variant; design in Table 86 (antibody, V domains shown) VH: QVQLVQSGAEVKKPGASVKVSCKASGYTFTSYWMHWVRQAPGQGLEWIGNVYPGSGSTKYAQKFQGRATLTVDTSTSTVYMELSSLRSEDTAVYYCARPGNYEGFAYWGQGTLVTVSS VL: NIQLTQSPSSLSASVGDRVTITCRASESVDSYGSSFMHWYQQKPGKPPKLLIYLASNLESGVPSRFSGSGSGTDFTLTISSLQPEDFATYYCQQNNEDPWTFGQGTKLEIK | equivalent or better affinity than the chimeric Fab
